Target: cleaved SVS-Dlp (SVS-Dlp coexpressed with Mmp2-FLAG, cleaved in the N-terminal polypeptide) (Drosophila)
Experiment: co-IP; S2R+ cells cotransfected with SVS-dlp and a Wnt, with or without Mmp2-FLAG; clarified lysate (2 mM Tris HCl, 150 mM NaCl, 1% NP-40 substitute, 1 mM EDTA, 5% glycerol, pH 7.4) on GFP-Trap Magnetic Agarose beads, 30 min at 4°C; Western blot under reducing conditions

Row | Molecule | fold increase of Wnt pulled down against uncleaved Dlp (median) [fold] | fold increase of Wg pulled down, normalized to the amount of Dlp, against uncleaved Dlp (median) [fold]
1 | Wnt6-3XHA (ligand) | 2.7 | 
2 | Wg-HA (Wingless with 3XHA tag) (ligand) GSSLSQVEGKQKSGRGRGSMWWGIAKVGEPNNITPIMYMDPAIHSTLRRKQRRLVRDNPGVLGALVKGANLAISECQHQFRNRRWNCSTRNFSRGKNLFGKIVDRGCRETSFIYAITSAAVTHSIARACSEGTIESCTCDYSHQSRSPQANHQAGSVAGVRDWEWGGCSDNIGFGFKFSREFVDTGERGRNLREKMNLHNNEAGRAHVQAEMRQECKCHGMSGSCTVKTCWMRLANFRVIGDNLKARFDGATRVQVTNSLRATNALAPVSPNAAGSNSVGSNGLIIPQSGLVYGEEEERMLNDHMPDILLENSHPISKIHHPNMPSPNSLPQAGQRGGRNGRRQGRKHNRYHFQLNPHNPEHKPPGSKDLVYLEPSPSFCEKNLRQGILGTHGRQCNETSLGVDGCGLMCCGRGYRRDEVVVVERCACTFHWCCEVKCKLCRTKKVIYTCL |  | 2.7
3 | Wnt2-3XHA (ligand) FTSVMLCGRIPGLTPGQRNMCREMPDALIALGEGHQLGAQECQHQFRGHRWNCSEVWQRNVFAHVIPTASREAAYTYAIASAGAAYAVTAACARGNISTCGCDVRHKATPTGGGTPDEPWKWGGCSADVDFGMRYARRFMDARELERDSRTLMNLHNNRAGRTLVKKMLRTDCKCHGVSGSCVMKTCWKSLPPFRLVGDRLMLKYQKAKTVQAVKGKRGLRLVLSRKKHAGTARAQKPVLDWPKRMELIYLEASPNYCERSLQTGSQGTSGRTCQRTGHGPQSCDLLCCGRGHNTQHIRRTTQCRCQFRWCCEVKCDECDESYEEFTCK | 6.2 | 
4 | Wnt4-3XFLAG (ligand) QVRNEDQLLMVGQNGDLDSSNPAIHHQQHQQHQQHQQHQQHQSNHNLNNGNMNSTILNTLMGNNAGQVVNSSPGGGGSMINQLGSSTSSVPSVIGGGVGSVGNPWHSAVGLGVPGNGMGLPSSHGLGGNMGSHPHGHALAGLAKLGIIVPGGQGLPGNLGYGGTMLNGGGVGGAAGMGLGIGSNTNNMDMQQGLYNEHFISEHTVMAVFTSQGQVGGPCRYMPATRRQNHQCRKETGLPGTLSEARRLATTHCEEQFRYDRWNCSIETRGKRNIFKKLYKETAFVHALTAAAMTHSIARACAEGRMTKCSCGPKKHNREAQDFQWGGCNDNLKHGKRVTRSFLDLRGGDGDEVSEILRHDSEVGIEAVSSQMMDKCKCHGVSGSCSMKTCWKKMADFNATATLLRQKYNEAIRKAPNQRSMRQVSSSRMKKPKQRRKKPQQSQYTTLYYLETSPSYCAVTKDRQCLHPDNCGTLCCGRGYTTQVVKQVEKCRCRFNNGRCCQLICDYCQRLENKYFCK | 5.9 | 

Reference: article PMC12636523
